Source: patent US20040110930A1
Several values for one entry are separate records, joined by “and”; a condition that tells them apart may be missing. Equal values may be shown once. One block for each binder: values may come before it.

Assays:
[1] = target: 38C13 scFv protein; assay: ELISA, coated 38C13 scFv 5 ug/ml; 3.125 ng Fab; background subtracted
[2] = target: 38C13 scFv protein; assay: ELISA, coated 38C13 scFv 5 ug/ml; 1.563 ng Fab; background subtracted
[3] = target: 38C13 scFv protein; assay: ELISA, coated 38C13 scFv 5 ug/ml; 50.000 ng Fab; background subtracted
[4] = target: 38C13 scFv protein; assay: ELISA, coated 38C13 scFv 5 ug/ml; 0.781 ng Fab; background subtracted
[5] = target: 38C13 scFv protein; assay: ELISA, coated 38C13 scFv 5 ug/ml; 0.391 ng Fab; background subtracted
[6] = target: 38C13 scFv protein; assay: ELISA, coated 38C13 scFv 5 ug/ml; 12.500 ng Fab; background subtracted
[7] = target: 38C13 scFv protein; assay: ELISA, coated 38C13 scFv 5 ug/ml; 0.098 ng Fab; background subtracted
[8] = target: 38C13 scFv protein; assay: ELISA, coated 38C13 scFv 5 ug/ml; 0.049 ng Fab; background subtracted
[9] = target: 38C13 scFv protein; assay: ELISA, coated 38C13 scFv 5 ug/ml; 0.195 ng Fab; background subtracted
[10] = target: 38C13 scFv protein; assay: ELISA, coated 38C13 scFv 5 ug/ml; 6.250 ng Fab; background subtracted
[11] = target: 38C13 scFv protein; assay: ELISA, coated 38C13 scFv 5 ug/ml; 25.000 ng Fab; background subtracted
[12] = target: 38C13 scFv protein; assay: ELISA, coated 38C13 scFv 5 ug/ml; 4.688 ng MAb; background subtracted
[13] = target: 38C13 scFv protein; assay: ELISA, coated 38C13 scFv 5 ug/ml; 18.750 ng MAb; background subtracted
[14] = target: 38C13 scFv protein; assay: ELISA, coated 38C13 scFv 5 ug/ml; 2.344 ng MAb; background subtracted
[15] = target: 38C13 scFv protein; assay: ELISA, coated 38C13 scFv 5 ug/ml; 9.375 ng MAb; background subtracted
[16] = target: 38C13 scFv protein; assay: ELISA, coated 38C13 scFv 5 ug/ml; 150.000 ng MAb; background subtracted
[17] = target: 38C13 scFv protein; assay: ELISA, coated 38C13 scFv 5 ug/ml; 37.500 ng MAb; background subtracted
[18] = target: 38C13 scFv protein; assay: ELISA, coated 38C13 scFv 5 ug/ml; 1.172 ng MAb; background subtracted
[19] = target: 38C13 scFv protein; assay: ELISA, coated 38C13 scFv 5 ug/ml; 0.146 ng MAb; background subtracted
[20] = target: 38C13 scFv protein; assay: ELISA, coated 38C13 scFv 5 ug/ml; 0.586 ng MAb; background subtracted
[21] = target: 38C13 scFv protein; assay: ELISA, coated 38C13 scFv 5 ug/ml; 0.293 ng MAb; background subtracted
[22] = target: 38C13 scFv protein; assay: ELISA, coated 38C13 scFv 5 ug/ml; 75.000 ng MAb; background subtracted

B1: control S1C5 Fab produced from mouse ascites MAb using the ImmunoPure Fab Kit (Fab, V domains shown)
VH: EVKLEQSGAELVKPGASVKISCKASGYTFTDHVIHWVKQRPEQGLEWIGFISPGNGDIRYNEKFKDKATLTADKSSSTAYMQLNSLTSEDSAVYFCKRSFYYYDDNYGDYWGQGTTLTVSS
VL: QIVLTQSPAIMSASLGERVTMTCTASSSVSSSYFHWYQQKPGSSPKLWIYTTSNLASGVPARFSGSGSGTSYSLTISSMEAEDAATYYCHQYHRSPLTFGAGTKLELKR
A450 [1]: 0.273 A450 and 0.266 A450
A450 [2]: 0.168 A450 and 0.171 A450
A450 [3]: 0.481 A450 and 0.516 A450
A450 [4]: 0.095 A450 and 0.094 A450
A450 [5]: 0.047 A450 and 0.05 A450
A450 [6]: 0.46 A450 and 0.465 A450
A450 [7]: 0.009 A450 and 0.018 A450
A450 [8]: 0.008 A450 and 0.003 A450
A450 [9]: 0.03 A450 and 0.023 A450
A450 [10]: 0.346 A450 and 0.363 A450
A450 [11]: 0.498 A450 and 0.51 A450

B4: Control S1C5 MAb from mouse ascites fluid (antibody, V domains shown)
VH: B1 VH
VL: B1 VL
A450 [12]: 0.283 A450 and 0.284 A450
A450 [13]: 0.476 A450 and 0.429 A450
A450 [14]: 0.18 A450 and 0.179 A450
A450 [15]: 0.39 A450 and 0.395 A450
A450 [16]: 0.517 A450 and 0.538 A450
A450 [17]: 0.443 A450 and 0.497 A450
A450 [18]: 0.105 A450 and 0.096 A450
A450 [19]: 0.012 A450 and 0.01 A450
A450 [20]: 0.053 A450 and 0.047 A450
A450 [21]: 0.025 A450 and 0.023 A450
A450 [22]: 0.532 A450 and 0.515 A450

Now from value to binder:

A450 [1]: 0.366 A450 and 0.35 A450
A450 [2]: 0.263 A450 and 0.247 A450
A450 [3]: 0.524 A450 and 0.504 A450
A450 [4]: 0.168 A450 and 0.154 A450
A450 [5]: 0.09 A450 and 0.094 A450
A450 [6]: 0.487 A450 and 0.485 A450
A450 [7]: 0.025 A450 and 0.019 A450
A450 [8]: 0.01 A450 and 0.011 A450
A450 [9]: 0.049 A450 and 0.041 A450
A450 [10]: 0.468 A450 and 0.449 A450
A450 [11]: 0.521 A450 and 0.519 A450
B2: pLSBC1792 produced S1C5 Fab (Fab, V domains shown)
VH: B1 VH
VL: B1 VL

A450 [12]: 0.198 A450 and 0.194 A450
A450 [13]: 0.39 A450 and 0.397 A450
A450 [14]: 0.106 A450 and 0.113 A450
A450 [15]: 0.295 A450 and 0.307 A450
A450 [16]: 0.521 A450 and 0.52 A450
A450 [17]: 0.477 A450 and 0.482 A450
A450 [18]: 0.061 A450
A450 [19]: 0.007 A450 and 0.004 A450
A450 [20]: 0.03 A450 and 0.029 A450
A450 [21]: 0.014 A450 and 0.015 A450
A450 [22]: 0.514 A450 and 0.517 A450
B3: pLSBC1798 produced S1C5 MAb (antibody, V domains shown)
VH: B1 VH
VL: B1 VL
